Measured values as given in US8802386B2, “Diagnostic test for determining the concentration of transient proteolytic activity in composite biological media” (Synapse B.V., priority 2002, dated 2014).

Tested on: thrombin generation in platelet-rich plasma of a healthy donor
Experiment: Thrombin generation curve (Thrombogram) in platelet-rich plasma, fluorogenic substrate
Assay type: cell-based, Human
Details: platelet-rich plasma of a healthy donor treated with the inhibitor vs the same plasma untreated; FIG. 9
Protocol: FIG. 9 is an example of an experiment in which platelet-rich plasma of a healthy donor is measured as well as the same plasma treated with a known platelet-activation inhibitor (ReoPro®). The two curves are different in shape, which is obvious from a longer TTP and lower peak height, but the area under the curve of both curves are within 3%, identical. This effect on peak height and TTP in the absence of a clear effect on the ETP is also seen for many mild coagulation factor deficiencies such as von Willebrand disease, deficiencies in factor VII or factor V and in factor VIII or IX deficiencies (haemophiliae). In many instances the Peak height and TTP have proven to be much more sensitive parameters of the thrombin generation curve than the ETP alone.
Firstly, an experiment is described in which thrombin generation in a sample of platelet rich plasma is measured. Solutions used: Human platelet rich plasma, obtained as in Beguin, S., T. Lindhout, and H. C. Hemker. The effect of trace amounts of tissue factor on thrombin generation in platelet rich plasma, its inhibition by heparin. Thromb Haemost, 1989. 61(1): p-25-9. Buffer A: 20 mM Hepes 140 mM NaCl, 5 g/l bovine serum albumin (BSA), pH 7.35; Buffer C: 20 mM Hepes, 140 mM NaCl, with BSA 60 mg/mL, pH 7.35 with 0.02% sodium azide as a preservative.
FluCa solution: To 1750 μL of buffer C are added 200 μL of 1 M CaCl2. The mixture is warmed to 37° C. Then 50 μL of 100 mmoles/liter of the substrate solution in DMSO is squirted in and the tube is immediately vortexed to obtain a perfectly clear solution that is 2.5 mM in substrate. 100 mM in CaCl2, 2.5% in DMSO. […]
The disturbing effects a and b are corrected by continuous on line comparison of the first derivative of the signal from the thrombin generated in the sample (O=f(t)) and the first derivative of the signal produced in the other sample by the calibrator (S=f(t)). […] A and B are continuously calculated during the experiment from the best fitting straight line through S=f(t). […]

B1: ReoPro: a known platelet-activation inhibitor (antibody, chains of the INN, looked up, V domains shown)
VH: EVQLQQSGTVLARPGASVKMSCEASGYTFTNYWMHWVKQRPGQGLEWIGAIYPGNSDTSYIQKFKGKAKLTAVTSTTSVYMELSSLTNEDSAVYYCTLYDGYYVFAYWGQGTLVTVSA
VL: EIVLTQSPVTLSVTPGDSVSLSCRASRDISNNLHWFQQTSHESPRLLIKYASQSMSGIPSRFSGSGSGTDFTLSINSVETEDFGMYFCQQTNSWPYTFGGGTKLEIK
modifications: Fab
- TTP (time to peak) of thrombin generation curve: longer
- difference in area under the curve (ETP) between treated and untreated plasma: ≤ 3%
- peak height of thrombin generation curve: lower
